Source: paper PMC2386288, “Kinetics and Ligand-Binding Preferences of Mycobacterium tuberculosis Thymidylate Synthases, ThyA and ThyX” (PLoS ONE, 2008)

Biological target: the molecule itself
Test: SEC

B1: Histidine-tagged M. tuberculosis ThyA (thymidylate synthase) (enzyme)
chain: MSIVTPYEDLLRFVLETGTPKSDRTGTGTRSLFGQQMRYDLSAGFPLLTTKKVHFKSVAYELLWFLRGDSNIGWLHEHGVTIWDEWASDTGELGPIYGVQWRSWPAPSGEHIDQISAALDLLRTDPDSRRIIVSAWNVGEIERMALPPCHAFFQFYVADGRLSCQLYQRSADLFLGVPFNIASYALLTHMMAAQAGLSVGEFIWTGGDCHIYDNHVEQVRLQLSREPRPYPKLLLADRDSIFEYTYEDIVVKNYDPHPAIKAPVAV
notes: also called conventional thymidylate synthase
stoichiometry N: 2
